Experimental data taken from article PMC7885793 (Biochemistry, 2019).

Tests used:
PLCβ3 ΔXY2 = target: T1, PLCβ3 ΔXY2 (Homo sapiens, UniProt Q01970 10-1234, ΔXY2 (residues 471–584)); assay: cell-based or functional assay
T1 sequence (looked up): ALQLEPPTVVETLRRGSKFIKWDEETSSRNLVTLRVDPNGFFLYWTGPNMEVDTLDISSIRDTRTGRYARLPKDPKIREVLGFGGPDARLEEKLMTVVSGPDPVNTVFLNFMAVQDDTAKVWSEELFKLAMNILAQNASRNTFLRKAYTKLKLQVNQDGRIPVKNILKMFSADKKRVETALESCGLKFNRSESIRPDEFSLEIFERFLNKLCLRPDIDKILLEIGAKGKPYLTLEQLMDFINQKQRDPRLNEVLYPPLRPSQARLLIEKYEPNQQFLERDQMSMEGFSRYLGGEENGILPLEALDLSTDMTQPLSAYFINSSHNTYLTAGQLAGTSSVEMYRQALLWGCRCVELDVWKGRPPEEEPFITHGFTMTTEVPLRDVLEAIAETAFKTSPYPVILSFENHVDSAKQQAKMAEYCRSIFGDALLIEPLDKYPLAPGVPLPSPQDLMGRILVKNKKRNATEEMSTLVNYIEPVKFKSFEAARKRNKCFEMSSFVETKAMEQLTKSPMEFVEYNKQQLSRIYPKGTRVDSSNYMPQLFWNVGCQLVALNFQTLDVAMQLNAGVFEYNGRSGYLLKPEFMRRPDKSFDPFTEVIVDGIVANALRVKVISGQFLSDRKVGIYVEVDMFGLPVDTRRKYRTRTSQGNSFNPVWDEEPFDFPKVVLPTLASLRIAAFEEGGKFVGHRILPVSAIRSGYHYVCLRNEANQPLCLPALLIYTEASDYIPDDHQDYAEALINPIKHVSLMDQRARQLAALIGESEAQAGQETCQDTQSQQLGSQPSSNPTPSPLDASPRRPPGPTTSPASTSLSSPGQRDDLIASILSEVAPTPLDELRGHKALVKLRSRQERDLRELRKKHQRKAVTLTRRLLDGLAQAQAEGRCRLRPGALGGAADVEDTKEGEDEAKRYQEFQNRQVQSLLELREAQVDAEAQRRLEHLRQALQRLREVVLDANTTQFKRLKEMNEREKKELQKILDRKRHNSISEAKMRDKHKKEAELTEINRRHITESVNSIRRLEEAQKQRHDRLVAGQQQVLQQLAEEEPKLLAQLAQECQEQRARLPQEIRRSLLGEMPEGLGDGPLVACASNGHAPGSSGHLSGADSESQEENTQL

PLCβ3 ΔXY1 = target: T2, PLCβ3 ΔXY1 (Homo sapiens, UniProt Q01970 10-1234, ΔXY1 (residues 471–569)); assay: cell-based or functional assay
T2 sequence (looked up): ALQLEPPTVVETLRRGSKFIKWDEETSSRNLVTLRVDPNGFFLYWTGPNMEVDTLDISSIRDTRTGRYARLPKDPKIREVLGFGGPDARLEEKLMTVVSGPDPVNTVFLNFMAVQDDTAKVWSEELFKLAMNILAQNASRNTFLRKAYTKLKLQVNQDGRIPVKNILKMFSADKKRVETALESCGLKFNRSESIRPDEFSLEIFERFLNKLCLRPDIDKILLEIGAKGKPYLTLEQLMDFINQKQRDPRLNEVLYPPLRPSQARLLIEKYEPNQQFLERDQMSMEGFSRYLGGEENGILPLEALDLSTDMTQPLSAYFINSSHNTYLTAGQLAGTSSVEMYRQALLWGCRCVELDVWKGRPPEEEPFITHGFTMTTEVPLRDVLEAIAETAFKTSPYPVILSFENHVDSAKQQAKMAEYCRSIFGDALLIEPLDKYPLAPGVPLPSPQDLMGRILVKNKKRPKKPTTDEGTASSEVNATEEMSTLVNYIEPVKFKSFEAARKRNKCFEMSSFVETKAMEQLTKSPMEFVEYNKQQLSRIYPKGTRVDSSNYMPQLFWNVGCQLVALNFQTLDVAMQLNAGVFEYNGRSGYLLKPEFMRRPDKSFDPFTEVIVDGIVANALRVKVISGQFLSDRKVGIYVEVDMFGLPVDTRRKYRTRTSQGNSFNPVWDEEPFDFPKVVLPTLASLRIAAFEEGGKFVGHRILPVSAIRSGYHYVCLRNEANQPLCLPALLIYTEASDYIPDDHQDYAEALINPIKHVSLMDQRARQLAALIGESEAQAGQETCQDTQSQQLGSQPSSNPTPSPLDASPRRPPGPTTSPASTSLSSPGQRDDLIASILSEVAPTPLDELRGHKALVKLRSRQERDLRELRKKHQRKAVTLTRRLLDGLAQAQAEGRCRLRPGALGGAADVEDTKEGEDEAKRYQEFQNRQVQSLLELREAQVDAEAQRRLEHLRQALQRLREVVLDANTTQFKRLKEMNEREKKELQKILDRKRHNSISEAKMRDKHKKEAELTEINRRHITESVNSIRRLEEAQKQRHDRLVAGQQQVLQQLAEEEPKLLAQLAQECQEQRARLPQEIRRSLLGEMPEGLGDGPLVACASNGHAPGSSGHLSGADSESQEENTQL

B1: Activated Gαq (Gαq·GDP-ALF4^−) (natural protein, murine, UniProt P21279 7-359, looked up)
chain: MACCLSEEAKEARRINDEIERQLRRDKRDARRELKLLLLGTGESGKSTFIKQMRIIHGSGYSDEDKRGFTKLVYQNIFTAMQAMIRAMDTLKIPYKYEHNKAHAQLVREVDVEKVSAFENPYVDAIKSLWNDPGIQECYDRRREYQLSDSTKYYLNDLDRVADPSYLPTQQDVLRVRVPTTGIIEYPFDLQSVIFRMVDVGGQRSERRKWIHCFENVTSIMFLVALSEYDQVLVESDNENRMEESKALFRTIITYPWFQNSSVILFLNKKDLLEEKIMYSHLVDYFPEYDGPQRDAQAAREFILKMFVDLNPDSDKIIYSHFTCATDTENIRFVFAAVKDTILQLNLKEYNLV
x-fold maximum activity over basal (complex against the PLCβ3 variant alone) (PLCβ3 ΔXY2): 2 x-fold
x-fold maximum activity over basal (complex against the PLCβ3 variant alone) (PLCβ3 ΔXY1): 4 x-fold
